± gives the standard error. Fewer inactive variants are shown than the library holds.
B1: glmS ribozyme (parent)
chain: AUAAAAGCGCCAGAACUACAGAAAUGUAGUUGACGAGGAGGAGGUUUAUCGAAUUUUCGGCGGAUGCCUCCAAA

Columns and labels:
Details in all cases: with glucosamine-6-phosphate
glucosamine-6-phosphate [1] = variants of: B1; assay: self-cleavage kobs at 40 uM GlcN6P; higher = faster cleavage; RNA array
Outline: (§1)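 kobs was derived by fitting per-tile medians to one- or two-exponential decays after normalising signals to baseline and to non-cleaving reference variants. Those signals came from barcoded ribozyme variants transcribed in situ by E. coli RNA polymerase on sequenced MiSeq chips, followed through a hybridised Cy3 probe at 37 °C and imaged over ~14 h. Glucosamine-6-phosphate (40 μM to 10 mM) in HEPES/KCl/Mg(OAc)2 buffer was flowed in. Weighted Michaelis–Menten fits across concentrations then gave kcat and KM.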

glucosamine-6-phosphate [2] = variants of: B1; assay: self-cleavage kobs at 10000 uM GlcN6P; higher = faster cleavage; RNA array
Outline: as §1

glucosamine-6-phosphate [3] = variants of: B1; assay: self-cleavage kobs at 160 uM GlcN6P; higher = faster cleavage; RNA array
Outline: as §1

glucosamine-6-phosphate [4] = variants of: B1; assay: self-cleavage kobs at 640 uM GlcN6P; higher = faster cleavage; RNA array
Outline: as §1

glucosamine-6-phosphate [5] = variants of: B1; assay: self-cleavage kobs at 2500 uM GlcN6P; higher = faster cleavage; RNA array
Outline: as §1

Variant	self-cleavage kobs at 40 uM GlcN6P (glucosamine-6-phosphate [1]) [s⁻¹]	self-cleavage kobs at 10000 uM GlcN6P (glucosamine-6-phosphate [2]) [s⁻¹]	self-cleavage kobs at 160 uM GlcN6P (glucosamine-6-phosphate [3]) [s⁻¹]	self-cleavage kobs at 640 uM GlcN6P (glucosamine-6-phosphate [4]) [s⁻¹]	self-cleavage kobs at 2500 uM GlcN6P (glucosamine-6-phosphate [5]) [s⁻¹]
A12U A15G A39G	0.00105 ± 0.00021	0.0688 ± 0.023			
C11G A48C	< 1e-05	< 1e-05			
A12U A42G U46G G63U	< 1e-05	< 1e-05			
A12U C70G	0.000124 ± 1.2e-05	0.001 ± 0.00029	0.000175 ± 2.3e-05	0.000558 ± 0.00013	
A12C G32U C71A	< 1e-05				
C11A G59C	< 1e-05		< 1e-05	< 1e-05	
C11G G29C U31G G37A C68G	< 1e-05				
C11A G35A U55A G60U U65A C68G	0.00461 ± 0.0018	5.33e-05 ± 1.7e-05			
A12C G35U	< 1e-05	< 1e-05	< 1e-05	< 1e-05	< 1e-05
C11U A36G	< 1e-05		< 1e-05	< 1e-05	< 1e-05
A12C U54A	0.000707 ± 7e-05	0.0301 ± 0.0049	0.00199 ± 0.00034	0.0159 ± 0.0035	0.00841 ± 0.0015
C10U C58A C68A	< 1e-05	< 1e-05			
A12U A14G G29A	0.00101 ± 0.00019	0.00831 ± 0.0018			
A12U A36G	< 1e-05		< 1e-05		
A12U A53U	0.00177 ± 0.00024	0.112 ± 0.036	0.00421 ± 0.00071	0.0159 ± 0.0029	0.0274 ± 0.007
A12C A24U A52C C67A	< 1e-05				
C11A C16G U54A C68A	6.79e-05 ± 2.4e-05	5.11e-05 ± 2e-05			
A12C C70U	0.000475 ± 4e-05	0.0163 ± 0.0022	0.00111 ± 0.00017	0.00328 ± 0.00037	0.0217 ± 0.0053
A12C A42G C70A	< 1e-05	2.91e-05 ± 1.2e-05			
C11G U54C C70U	< 1e-05	< 1e-05			
A12U G29A A39G A53U	0.000581 ± 0.00016	0.0117 ± 0.0041			
C11U A48U G51U	< 1e-05				
A12U G40U C61A	< 1e-05	< 1e-05			
C11A U69G	5.85e-05 ± 9.2e-06	5.17e-05 ± 1.1e-05	0.000398 ± 0.00018	0.000166 ± 4.5e-05	
A12C U56G C68A C70A	< 1e-05				
C11A G32A A39U	< 1e-05			< 1e-05	
A12U A33C G37C	< 1e-05	< 1e-05			
C11G G29A U49G U69G	4.27e-05 ± 1.7e-05				

Variant	self-cleavage kobs at 40 uM GlcN6P (glucosamine-6-phosphate [1]) [s⁻¹]	self-cleavage kobs at 10000 uM GlcN6P (glucosamine-6-phosphate [2]) [s⁻¹]	self-cleavage kobs at 160 uM GlcN6P (glucosamine-6-phosphate [3]) [s⁻¹]	self-cleavage kobs at 640 uM GlcN6P (glucosamine-6-phosphate [4]) [s⁻¹]	self-cleavage kobs at 2500 uM GlcN6P (glucosamine-6-phosphate [5]) [s⁻¹]
C11A G29U C50G	6.35e-05 ± 1.7e-05		0.000296 ± 0.00011		5.28e-05 ± 2.3e-05
A12U G40U G41C	< 1e-05				
C11A A36C	< 1e-05	< 1e-05	< 1e-05	< 1e-05	< 1e-05
A12C A14C G60A A64C	< 1e-05				
A12U U45C	0.000226 ± 3.6e-05	0.00628 ± 0.001			0.00428 ± 0.0016
C11G G37C G40U G51A U65C	< 1e-05	< 1e-05			
A12G C58U C61U	< 1e-05				
A12U G32C G41U C61A	< 1e-05				
C11G A36C G37U G38U U49A G63C U65A	< 1e-05	< 1e-05			
A12U C68G C70G	< 1e-05				
C11G A14C	< 1e-05		< 1e-05		
C11A A48U A52U	< 1e-05	< 1e-05			
A12G G37C	< 1e-05	< 1e-05		< 1e-05	
A12G G41U A52G U54A	< 1e-05				
A12G A14U A36G A48G A53G	< 1e-05	< 1e-05			< 1e-05
C11U G13U U57C G62C C67A	< 1e-05				
C11G A39G U46G C61U U65C C68A	< 1e-05	< 1e-05			
C10U G37C G44U U65C	< 1e-05		< 1e-05	< 1e-05	< 1e-05
C10U G35C A52U	< 1e-05				
C10U U45G G51U A64U	< 1e-05	< 1e-05			
C11G G13U	< 1e-05	< 1e-05	< 1e-05	< 1e-05	< 1e-05
A12G C61A C70U	< 1e-05	< 1e-05			
A12U A39U U54C	0.000713 ± 0.00016	0.0366 ± 0.01			
C11G A12C G38A	< 1e-05				
C10U G41U U56C C70U	< 1e-05				
A12G A15U U49A U54G	< 1e-05				
A12C A42U A64G	< 1e-05			< 1e-05	
